This note sets out measurements from patent US20110152173A1 (EMERGENT PRODUCT DEVELOPMENT SEATTLE, published 2011).

The target of assay [1] is T1, recombinant human TNF-α (human, UniProt P01375 77-233).
T1 construct: also called rhTNFα
Briefly: ELISA: plate-coated HIL-6, Xceptor, then rhTNF-α, detected with anti-TNF-α-biotin (simultaneous binding). As to the method:
The plate was covered, and incubated overnight at 4° C. […] The absorbance of each well was read at 450 nm.

The target in assay [2] is TNFα (Biacore analyte of Example 12) (UniProt P01375 77-233, limits assumed). In words: SPR (Biacore T100): binder captured by anti-human Fc, TNFα injected. The text has this:
The unoccupied sites of the activated surface were blocked by ethanolamine. […] At the end of the cycle, the surface was regenerated gently using 3M MgCl₂ which dissociates protein bound to anti hFc capture antibody. […] The value of this parameter was then fixed and the data from the low density surface were used to calculate the association rate constant, kₐ and the Rₘₐₓ. This strategy maximizes signal-to-noise for the dissociation phase data and reduces the mass transport limitation for the association phase data. BIAevaluation software was used to perform these analyses.

A further assay has as its target T2, recombinant human sIL-6R (human, UniProt P08887 20-358, limits assumed).
T2 construct: Bought; also called human soluble IL6R
T2 sequence (looked up): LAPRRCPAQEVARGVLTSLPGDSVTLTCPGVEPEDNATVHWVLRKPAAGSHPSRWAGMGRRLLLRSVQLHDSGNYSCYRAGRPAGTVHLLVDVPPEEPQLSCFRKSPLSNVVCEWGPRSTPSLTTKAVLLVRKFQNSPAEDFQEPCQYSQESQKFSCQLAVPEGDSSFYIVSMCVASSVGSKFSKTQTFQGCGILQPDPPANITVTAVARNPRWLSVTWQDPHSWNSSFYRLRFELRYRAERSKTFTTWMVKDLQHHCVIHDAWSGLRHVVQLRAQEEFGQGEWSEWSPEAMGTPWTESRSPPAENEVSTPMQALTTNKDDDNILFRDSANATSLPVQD
In words: ELISA: Xceptor captured on anti-human IgG-Fc, sIL-6R added, detected with anti-IL-6R-biotin. The method, then: Added to each well of a 96-well plate was 100 μl goat anti-human IgG-Fc (ICN Pharmaceuticals, Costa Mesa, Calif.) from a 2 μg/ml solution in PBS, pH 7.2-7.4. The plates were covered, and incubated overnight at 4° C. After washing four times with PBS-T, 250 μl Blocking buffer (PBS-T with 3% BSA or 10% normal goat serum) was added to each well, the plate was covered, and incubated at room temperature for 2 hours (or at 4° C. overnight). […] After washing the plate five times with PBS-T, added in duplicate wells was 100 μl/well recombinant human sIL-6R(R&D Systems) from a […] solution in Working buffer, the plate was covered, and incubated at room temperature for about 1 to 2 hours. After washing the plate five times with PBS-T, added 100 μl/well anti-human IL-6R-biotin (R&D Systems) from a 100 ng/ml solution in Working buffer, the plate was covered, and incubated at room temperature for about 1 to 2 hours. After washing the plate five times with PBS-T, 100 μl per well horse radish peroxidase-conjugated streptavidin (Zymed, San Francisco, Calif.) diluted 1:4,000 in Working buffer was added, the plate was covered, and incubated at room temperature for 30 minutes. After washing the plate six times with PBS-T, 100 μl per well 3,3,5,5-tetramentylbenzidine (TMB) substrate solution (Pierce, Rockford, Ill.) was added for about 3 to 5 minutes and then the reaction was stopped with 50 μl Stop buffer (1N H₂SO₄) per well. The absorbance of each well was read at 450 nm.

Assay [3] deals with T1, recombinant human TNF-α. In words: ELISA: Xceptor captured on anti-human IgG-Fc, rhTNF-α added, detected with anti-TNF-α-biotin. The method, then: Added to each well of a 96-well plate was 100 μl goat anti-human IgG-Fc (ICN Pharmaceuticals, Costa Mesa, Calif.) from a 2 μg/ml solution in PBS, pH 7.2-7.4. The plate was covered, and incubated overnight at 4° C. After washing four times with PBS-T, 250 μl Blocking buffer was added to each well, the plate was covered, and incubated at room temperature for 2 hours (or at 4° C. overnight). […] After washing the plate five times with PBS-T, 100 μl per well horse radish peroxidase-conjugated streptavidin (Jackson ImmunoResearch, West Grove, Pa.) diluted 1:1,000 in Working buffer was added, the plate was covered, and incubated at room temperature for 30 minutes. After washing the plate six times with PBS-T, 100 μl per well 3,3,5,5-tetramentylbenzidine (TMB) substrate solution (Pierce, Rockford, Ill.) was added for about 3 to 5 minutes and then the reaction was stopped with 50 μl Stop buffer (1N H₂SO₄) per well. The absorbance of each well was read at 450 nm.

Chain of TNFα (Biacore analyte of Example 12) (P01375 77-233 limits assumed): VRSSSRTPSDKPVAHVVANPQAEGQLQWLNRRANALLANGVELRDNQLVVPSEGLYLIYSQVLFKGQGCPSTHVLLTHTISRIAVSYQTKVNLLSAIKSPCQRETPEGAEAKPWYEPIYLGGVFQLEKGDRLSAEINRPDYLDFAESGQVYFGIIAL
T1 sequence (P01375 77-233 limits assumed): as above

B1: TRU(XT6)-1006 (Fc fusion)
chain: LPAQVAFTPYAPEPGSTCRLREYYDQTAQMCCSKCSPGQHAKVFCTKTSDTVCDSCEDSTYTQLWNWVPECLSCGSRCSSDQVETQACTREQNRICTCRPGWYCALSKQEGCRLCAPLRKCRPGFGVARPGTETSDVVCKPCAPGTFSNTTSSTDICRPHQICNVVAIPGNASMDAVCTSTSPTRSMAPGAVHLPQPVSTRSQHTQPTPEPSTAPSTSFLLPMGPSPPAEGSTGDTGEPKSSDKTHTCPPCPAPEAAGAPSVFLFPPKPKDTLMISRTPEVTCVVVDVSHEDPEVKFNWYVDGVEVHNAKTKPREEQYNSTYRVVSVLTVLHQDWLNGKAYACAVSNKALPAPIEKTISKAKGQPREPQVYTLPPSRDELTKNQVSLTCLVKGFYPSDIAVEWESNGQPENNYKTTPPVLDSDGSFFLYSKLTVDKSRWQQGNVFSCSVMHEALHNHYTQKSLSLSPGQRHNNSSLNTRTQKARHSPNSEVQLLESGGGLVQPGGSLRLSCAASGFTFSQYNMIWVRQAPGKGLEWVSWISSSGGTEYADSVKGRFTISRDNSKNTLYLQMNSLRAEDTAVYYCAKDRGYGSGSYGAYDAFDIWGQGTMVTVSSGGGGSGGGGSGGGGSQDIQMTQSPSSLSASVGDRVTITCQTSQSIDRYLNWYQQKAGEAPKLLIYAASSLQSGVPSRFSGSGSGTDFTLTISSLQPEDFASYYCQQSYRTPRTFGQGTKVEIK
notes: not trimmed; also called Xceptor TNFRSF1B::HIL6
With B1, the binding result with recombinant human TNF-α [1] is listed as “binds”.

B2: TRU(XT6)-1002 (Fc fusion)
chain: LPAQVAFTPYAPEPGSTCRLREYYDQTAQMCCSKCSPGQHAKVFCTKTSDTVCDSCEDSTYTQLWNWVPECLSCGSRCSSDQVETQACTREQNRICTCRPGWYCALSKQEGCRLCAPLRKCRPGFGVARPGTETSDVVCKPCAPGTFSNTTSSTDICRPHQICNVVAIPGNASMDAVCTSTSPTRSMAPGAVHLPQPVSTRSQHTQPTPEPSTAPSTSFLLPMGPSPPAEGSTGDTGEPKSSDKTHTCPPCPAPEAAGAPSVFLFPPKPKDTLMISRTPEVTCVVVDVSHEDPEVKFNWYVDGVEVHNAKTKPREEQYNSTYRVVSVLTVLHQDWLNGKAYACAVSNKALPAPIEKTISKAKGQPREPQVYTLPPSRDELTKNQVSLTCLVKGFYPSDIAVEWESNGQPENNYKTTPPVLDSDGSFFLYSKLTVDKSRWQQGNVFSCSVMHEALHNHYTQKSLSLSPGQRHNNSSLNTRTQKARHSPNSEVQLLESGGGLVQPGGSLRLSCAASGFTFSFYQMHWVRQAPGKGLEWVSGIYPSGGYTKYADSVKGRFTISRDNSKNTLYLQMNSLRAEDTAVYYCARDLGYGSSWYYFDYWGQGTLVTVSSGGGGSGGGGSGGGGSQSALTQPASVSGSPGQSITISCSGTDSDVGGYNHVSWYQQHPGKAPKLIIYDVDHRPSGISNRFSGSKSGNTASLTISGLQAEDEADYYCSSYRSGSTYVFGTGTKVTVL
notes: also called Xceptor TNFRSF1B::anti-HIL6
In assay [2], B2 registered a Kd of 3.1 pM, a dissociation rate constant (koff) of 0.00014 s⁻¹ and a kon of 4.7e+07 M⁻¹ s⁻¹. Moreover, the binding result with recombinant human sIL-6R is reported as “no binding”.

B3: TRU(X6T)-1019 (Fc fusion)
chain: EVQLLESGGGLVQPGGSLRLSCAASGFTFSWYLMHWVRQAPGKGLEWVSGIWPSGGHTLYADSVKGRFTISRDNSKNTLYLQMNSLRAEDTAVYYCAREPLLWFGELSYNWFDPWGQGTLVTVSSGGGGSGGGGSGGGGSQDIQMTQSPSSVSASVGDRVTITCRASQGISSWLAWYQQKPGKAPKLLIYAASSLQSGVPSRFSGSGSGTDFTLTISSLQPEDFATYYCQQANSFPLTFGGGTKVEIKTGEPKSSDKTHTCPPCPAPEAAGAPSVFLFPPKPKDTLMISRTPEVTCVVVDVSHEDPEVKFNWYVDGVEVHNAKTKPREEQYNSTYRVVSVLTVLHQDWLNGKAYACAVSNKALPAPIEKTISKAKGQPREPQVYTLPPSRDELTKNQVSLTCLVKGFYPSDIAVEWESNGQPENNYKTTPPVLDSDGSFFLYSKLTVDKSRWQQGNVFSCSVMHEALHNHYTQKSLSLSPGQRHNNSSLNTRTQKARHSPNSLPAQVAFTPYAPEPGSTCRLREYYDQTAQMCCSKCSPGQHAKVFCTKTSDTVCDSCEDSTYTQLWNWVPECLSCGSRCSSDQVETQACTREQNRICTCRPGWYCALSKQEGCRLCAPLRKCRPGFGVARPGTETSDVVCKPCAPGTFSNTTSSTDICRPHQICNVVAIPGNASMDAVCTSTSPTRSMAPGAVHLPQPVSTRSQHTQPTPEPSTAPSTSFLLPMGPSPPAEGSTGD
notes: also called Xceptor in the reverse orientation
On to B3, for which the binding result with recombinant human sIL-6R is given as “no binding”; in the assay with recombinant human TNF-α [3] it was “binds”.

B4: TRU(XT6)-1058 (Fc fusion)
chain: LPAQVAFTPYAPEPGSTCRLREYYDQTAQMCCSKCSPGQHAKVFCTKTSDTVCDSCEDSTYTQLWNWVPECLSCGSRCSSDQVETQACTREQNRICTCRPGWYCALSKQEGCRLCAPLRKCRPGFGVARPGTETSDVVCKPCAPGTFSNTTSSTDICRPHQICNVVAIPGNASMDAVCTSTSPTRSMAPGAVHLPQPVSTRSQHTQPTPEPSTAPSTSFLLPMGPSPPAEGSTGDTGEPKSSDKTHTCPPCPAPEAAGAPSVFLFPPKPKDTLMISRTPEVTCVVVDVSHEDPEVKFNWYVDGVEVHNAKTKPREEQYNSTYRVVSVLTVLHQDWLNGKAYACAVSNKALPAPIEKTISKAKGQPREPQVYTLPPSRDELTKNQVSLTCLVKGFYPSDIAVEWESNGQPENNYKTTPPVLDSDGSFFLYSKLTVDKSRWQQGNVFSCSVMHEALHNHYTQKSLSLSPGQRHNNSSLNTRTQKARHSPNSEVQLLESGGGLVQPGGSLRLSCAASGFTFSMYTMHWVRQAPGKGLEWVSWISPSGGWTKYADSVKGRFTISRDNSKNTLYLQMNSLRAEDTAVYYCAVSPWGGPFDYWGQGTLVTVSSGGGGSGGGGSGGGGSQDIQMTQSPSTLSASVGDRVTITCRASQSISSWLAWYQQKPGKAPKLLIYKASTLESGVPSRFSAGGSGTEFTLTISSLQPDDFGTYYCQQYNSYSLTFGGGTKVEII
notes: not trimmed; also called Xceptor TNFRSF1B::anti-HIL6
On to B4, for which the binding result is given as “no binding” with recombinant human sIL-6R and “binds” with recombinant human TNF-α [3].

B5: TRU(XT6)-1019 (Fc fusion)
chain: LPAQVAFTPYAPEPGSTCRLREYYDQTAQMCCSKCSPGQHAKVFCTKTSDTVCDSCEDSTYTQLWNWVPECLSCGSRCSSDQVETQACTREQNRICTCRPGWYCALSKQEGCRLCAPLRKCRPGFGVARPGTETSDVVCKPCAPGTFSNTTSSTDICRPHQICNVVAIPGNASMDAVCTSTSPTRSMAPGAVHLPQPVSTRSQHTQPTPEPSTAPSTSFLLPMGPSPPAEGSTGDTGEPKSSDKTHTCPPCPAPEAAGAPSVFLFPPKPKDTLMISRTPEVTCVVVDVSHEDPEVKFNWYVDGVEVHNAKTKPREEQYNSTYRVVSVLTVLHQDWLNGKAYACAVSNKALPAPIEKTISKAKGQPREPQVYTLPPSRDELTKNQVSLTCLVKGFYPSDIAVEWESNGQPENNYKTTPPVLDSDGSFFLYSKLTVDKSRWQQGNVFSCSVMHEALHNHYTQKSLSLSPGQRHNNSSLNTRTQKARHSPNSEVQLLESGGGLVQPGGSLRLSCAASGFTFSWYLMHWVRQAPGKGLEWVSGIWPSGGHTLYADSVKGRFTISRDNSKNTLYLQMNSLRAEDTAVYYCAREPLLWFGELSYNWFDPWGQGTLVTVSSGGGGSGGGGSGGGGSQDIQMTQSPSSVSASVGDRVTITCRASQGISSWLAWYQQKPGKAPKLLIYAASSLQSGVPSRFSGSGSGTDFTLTISSLQPEDFATYYCQQANSFPLTFGGGTKVEIK
notes: as for B4
With B5, the values for the binding result with recombinant human sIL-6R and with recombinant human TNF-α [3] were “no binding” and “binds”, respectively.
